Test results from article PMC11596305, “A strategy to design protein-based antagonists against type I cytokine receptors” (PLOS Biology, 2024).

B1: Thrombopoietin (TPO), bacterially expressed (ligand)
chain: SPAPPACDLRVLSKLLRDSHVLHSRLSQCPEVHPLPTPVLLPAVDFSLGEWKTQMEETKAQDILGAVTLLLEGVMAARGQLGPTCLSSLLGQLSGQVRLLLGALQSLLGTQLPPQGRTTAHKDPNAIFLSFQHLLRGKVRFLMLVGGSTLCVRRAPPTTAVPS
modifications: expressed in E. coli, non-glycosylated; N-terminal His tag/thrombin site omitted / The construct is described only in S1 Methods. The extracellular domain after the signal peptide is assumed as the …
B2: Thrombopoietin receptor (TPOR) (receptor)
chain: QDVSLLASDSEPLKCFSRTFEDLTCFWDEEEAAPSGTYQLLYAYPREKPRACPLSSQSMPHFGTRYVCQFPDQEEVRLFFPLHLWVKNVFLNQTRTQRVLFVDSVGLPAPPSIIKAMGGSQPGELQISWEEPAPEISDFLRYELRYGPRDPKNSTGPTVIQLIATETCCPALQRPHSASALDQSPCAQPTMPWQDGPKQTSPSREASALTAEGGSCLISGLQPGNSYWLQLRSEPDGISLGGSWGSWSLPVTVDLPGDAVALGLQCFTLDLKNVTCQWQQQDHASSQGFFYHSRARCCPRDRYPIWENCEEEEKTNPGLQTPQFSRCHFKSRNDSIIHILVEVTTAPGTVHSYLGSPFWIHQAVRLPTPNLHWREISSGHLELEWQHPSSWAAQETCYQLRYTGEGHQDWKVLEPPLGARGGTLELRPRSRYRLQLRARLNGPTYQGPWSSWSDPTRVETATETAW
modifications: The construct is described only in S1 Methods. The extracellular domain after the signal peptide is assumed as the SPR receptor; glycosylation is possible.

Key:
Test in all cases: SPR; steady-state fitting of TPOR binding; further details in S1 Methods (not shown)
Conditions in all cases: both partners purified
[1] = target: Thrombopoietin receptor (TPOR) (UniProt P40238 26-635)
buto_a3 = target: buto_a3
buto_a3_t2 = target: buto_a3_t2

Row | Binder | Kd [1] | Kd (buto_a3) | Kd (buto_a3_t2)
1 | B1 | 4.09 ± 1.84 µM |  | 
2 | B2 |  | 10.6 ± 1.49 µM | 0.88 ± 0.16 µM
